Source: paper PMC3214010

Legend:
[1] = target: human Dcn1 potentiating neddylation domain (hDcn1^P) (human) (UniProt Q96GG9); assay: ITC
[2] = target: yeast Dcn1 potentiating neddylation domain (yDcn1^P) (yeast) (UniProt Q12395); assay: ITC
Chain of UniProt Q12395 (Q12395 70-269): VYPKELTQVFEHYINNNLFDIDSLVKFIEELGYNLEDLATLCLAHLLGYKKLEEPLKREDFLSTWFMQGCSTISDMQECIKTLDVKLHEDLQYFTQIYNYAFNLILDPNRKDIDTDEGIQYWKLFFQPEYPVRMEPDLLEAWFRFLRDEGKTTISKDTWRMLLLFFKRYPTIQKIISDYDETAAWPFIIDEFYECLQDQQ

Chain of UniProt Q96GG9 (Q96GG9 62-259): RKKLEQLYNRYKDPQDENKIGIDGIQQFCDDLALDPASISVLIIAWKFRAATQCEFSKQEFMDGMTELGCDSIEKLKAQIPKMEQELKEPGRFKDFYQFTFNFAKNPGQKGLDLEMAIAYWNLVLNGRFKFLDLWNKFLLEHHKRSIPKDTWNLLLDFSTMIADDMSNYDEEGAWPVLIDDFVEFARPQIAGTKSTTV

Row | Substance | fold change of Kd against the acetylated peptide (weaker binding) [1] [fold] | fold improvement of binding over the unacetylated peptide [1] [fold] | fold change of Kd against the acetylated peptide (weaker binding) [2] [fold] | fold improvement of binding over the unacetylated peptide [2] [fold]
1 | N-terminally formylated human Ubc12 peptide | 9 | 10 | – | –
2 | N-terminally formylated yeast Ubc12 peptide | – | – | 17 | 10
